{
  "source": "the nanobody polyreactivity screen of Harvey et al. (2022)",
  "data": [
    {"test": "yeast display, Sf9 membrane polyspecificity reagent, FACS + sequencing; frameworks hold sequencing errors", "how_it_was_run": "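Polyreactivity labels are assigned by the sorting gate from which each nanobody was recovered. The gates were low and high (top ~1%), set on anti-HA fluorescence for expression and streptavidin fluorescence for reagent binding. Before sorting, galactose-induced (36–48 hours) yeast display cells were stained for 1 hour at 4 °C with 10% biotinylated, detergent-solubilized Sf9 membrane reagent.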", "values": [
      {"sequence": "QVQLVESGGGLVQAGGSLRLSCAASGRTFYIYAMGWYRQAPGKERELVADITSGGSTYYADSVKGRFTISRDNAKNTVYLQMNSLKPDDTAVYYCAADWVTFYSYTEYDYWGQGSQVTVSS", "polyreactivity (PSR sort gate)": "low polyreactivity"},
      {"sequence": "QVQLVESGGGLVQAGGSLRLSCAASGRTFYIYAMGWYRQAPGKERELVARITTGGRTNYADSVKGRFTISRDNAKNTVYLQMNSLKPEDTAVYYCATQYRGRQRKYDYWGQGTQVTVSS", "polyreactivity (PSR sort gate)": "high polyreactivity"},
      {"sequence": "QVQLVESGGGLVQAGGSLRLSCAASGRTFYIYAMGWYRQAPGKERELVATIDSTGSTNYADSVKGRFTISRDNAKNTVYLQMNSLKPEDTAVYYCNADDWVGRSLRYDYWGQGTQVTVSS", "polyreactivity (PSR sort gate)": "low polyreactivity"},
      {"sequence": "QVQLVESGGGLVQAGGSLRLSCAASGRTFYIYTMGWYRQAPGKERELVATAITSGGITYYADSVKGRFTISRDNAKNTVYLQMNSLKPEDTAVYYCAADDYYGYYGFNYWGQGTQVTVSS", "polyreactivity (PSR sort gate)": "low polyreactivity"},
      {"sequence": "QVQLVESGGGLVQAGGSLRLSCAASGRTFYKNTMGWYRQAPGKERELVATIYQRGGSTYYADSVKGRFTISRDNAKNTVYLQMNSLKREDTAVYYCNARKYTQSIHYDYWGQGTQVTVSS", "polyreactivity (PSR sort gate)": "high polyreactivity"},
      {"sequence": "QVQLVESGGGLVQAGGSLRLSCAASGRTFYKYAMGWYRQAPGKERELVAAISGGGTTNYADSVKGRFTISRDNAKNTVYLQMNSLKPEDTAVYYCNAARTRWATGYDYWGQGTQVTVSS", "polyreactivity (PSR sort gate)": "low polyreactivity"},
      {"sequence": "QVQLVESGGGLVQAGGSLRLSCAASGRTFYKYGRGWYRQAPRKERELVASISSGGNTYYADSVKGRFTISRDNAKHTVYLQMNSLKPDASAVFYCAAVNYWPFYYYVYGYWGQGTQVTVSS", "polyreactivity (PSR sort gate)": "high polyreactivity"},
      {"sequence": "QVQLVESGGGLVQAGGSLRLSCAASGRTFYLYAMGWYRQAPGKERELVAAITKSGGSTYYADSVKGRFTISRDNAKNTVYLQMNSLKPEDTAVYYCATDGRWRLAGAFTGKRRTYDYWGQGTQVTVSS", "polyreactivity (PSR sort gate)": "low polyreactivity"},
      {"sequence": "QVQLVESGGGLVQAGGSLRLSCAASGRTFYLYAMGWYRQAPGKERELVDTITESVGNTYYADSVKGRFTISRDNAKNTVYLQMNSLKPEDTAVYYCAATYKYYLYQPKTLFREGDYWGQGTQVTVSS", "polyreactivity (PSR sort gate)": "low polyreactivity"},
      {"sequence": "QVQLVESGGGLVQAGGSLRLSCAASGRTFYLYAMGWYRQAPGTERELVADITSGGSTYYADSVKGRFTISRDNAKNTVYLQMNSLKPEDTAVYYCAADWVTFYSYTEYDYWGQGTQVTVSS", "polyreactivity (PSR sort gate)": "low polyreactivity"},
      {"sequence": "QVQLVESGGGLVQAGGSLRLSCAASGRTFYLYGMGWYRQAHGKETELVAAITLSDGSTYYADSVKGRFTISRDNAKNTVYLQMNSLKPEDTAVYYCAARDYPFPYAMNYWGQGTQVTVSS", "polyreactivity (PSR sort gate)": "low polyreactivity"},
      {"sequence": "QVQLVESGGGLVQAGGSLRLSCAASGRTFYNAMGWYIQAPGKERELVAAITTGGGTKYADSVKGRFTISRDNAKNTVYLQMHSLQPEDTAVYYCNTDAWYHFYHGAHKFDYWGQGTQVTVSS", "polyreactivity (PSR sort gate)": "low polyreactivity"},
      {"sequence": "QVQLVESGGGLVQAGGSLRLSCAASGRTFYNAMGWYRPAPGKERELVAAISGSGGSTYYADSVKGRFTISRDNAKNTVYLKMNSLKPEDTAVYYCAARSVWWQVSQGNYWGQGTQVTVSS", "polyreactivity (PSR sort gate)": "low polyreactivity"},
      {"sequence": "QVQLVESGGGLVQAGGSLRLSCAASGRTFYNNAMGWYRQAPGKERELVATINNRGGTTYYADSVKGRFTISRDNAKNTVYLQMNSLKPEDSAVYYCAKSAQRYSYRYYYWGQGTQVTVSS", "polyreactivity (PSR sort gate)": "high polyreactivity"},
      {"sequence": "QVQLVESGGGLVQAGGSLRLSCAASGRTFYNYAMGWYRQAHGKERELVAAIDWGSDSTYYADYVKGRFTISRDNANNTVYLQMNRLKPEDTAVYYCAAYLVSVNSRTYDYWGQGTQVTVSS", "polyreactivity (PSR sort gate)": "low polyreactivity"},
      {"sequence": "QVQLVESGGGLVQAGGSLRLSCAASGRTFYNYAMGWYRQAPGKEREFVAAISSSGGSTYYADSVKGRFTISRDNAKNTVYLQMNSLKPEDTAVYYCAAYYISFDYWGQGTKVTVSS", "polyreactivity (PSR sort gate)": "high polyreactivity"},
      {"sequence": "QVQLVESGGGLVQAGGSLRLSCAASGRTFYNYAMGWYRQAPGKERELVATINRGVSTNYADSVKGRFTISRDNEKNTVYLQMNSLKPEDTAVYYCAARKRPPYGYGYWGQGTQVTVSS", "polyreactivity (PSR sort gate)": "high polyreactivity"},
      {"sequence": "QVQLVESGGGLVQAGGSLRLSCAASGRTFYPNAMGWYRQAPGKERELVAAISWSGGSTYYADSVKGRFTISRDNAKNTVYLQMNSLKPEDTAVYYCNARYLYWALSYDYWGQGTQVTVSS", "polyreactivity (PSR sort gate)": "low polyreactivity"},
      {"sequence": "QVQLVESGGGLVQAGGSLRLSCAASGRTFYPNAMGWYRQAPGKERELVAAITRSGGRTYYADSVKGRFTISRDNAKNTVYLQMNSLKPEDTAVYYCNADLYYHYYKYEYWGQGTQVTVSS", "polyreactivity (PSR sort gate)": "low polyreactivity"},
      {"sequence": "QVQLVESGGGLVQAGGSLRLSCAASGRTFYPNTMGWYRQAPGKERELVATITRSGGNTYADSVKGRFTISRDNAKNTVYLQMNSLKPEDTAVYYCNADQRRSYWLVSQRYDYWGQGTQVTVSS", "polyreactivity (PSR sort gate)": "low polyreactivity"},
      {"sequence": "QVQLVESGGGLVQAGGSLRLSCAASGRTFYPNVMGWYRQAPGKERELVAAISRGGSTYYADSVKGRFTISRDNAKNTVYLQMNSLKPEDTAVYYCAATHYGHSISYWFDYWGQGTQVTVSS", "polyreactivity (PSR sort gate)": "high polyreactivity"},
      {"sequence": "QVQLVESGGGLVQAGGSLRLSCAASGRTFYPNVMGWYRQAPGKERELVAAITSGGSTYYADSVKGRFTISRDNAKNTVYLQMNSLKPEDTAVYYCAVAYAGGGSRKYDYWGQGTQVTVSS", "polyreactivity (PSR sort gate)": "low polyreactivity"},
      {"sequence": "QVQLVESGGGLVQAGGSLRLSCAASGRTFYPYAMGWYRQAPGKERELVAAIDYSSATTYYADSVKGRFTISRDNAKNTVYLQMNSLKPEDTAVFYCARVGIGVGWTKLNYWGQGTQVTVSS", "polyreactivity (PSR sort gate)": "low polyreactivity"},
      {"sequence": "QVQLVESGGGLVQAGGSLRLSCAASGRTFYPYAMGWYRQAPGKERELVAAISWNGGRTYYADSVKGRFTISRDNAKNTVYLQMTSLKPEDTAVYYCAADTAYYGFDYWGQGTQVTVSS", "polyreactivity (PSR sort gate)": "low polyreactivity"},
      {"sequence": "QVQLVESGGGLVQAGGSLRLSCAASGRTFYPYAMGWYRQAPGKERELVARITSGGSTYADSVKGRFTISRDNAKNTVYLQMNSLKPEDTAVYYCNTDGYLLSRYPYSVQLYEYWGQGTQVTVSS", "polyreactivity (PSR sort gate)": "high polyreactivity"},
      {"sequence": "QVQLVESGGGLVQAGGSLRLSCAASGRTFYPYAMGWYRQAPRKERELVAAISRSGGSTYADSVKGRFTISRDNAKNTVYLQMNSLKREDTAVYYCATRRKTYLSFNYDYWGQGTQVTVSS", "polyreactivity (PSR sort gate)": "low polyreactivity"},
      {"sequence": "QVQLVESGGGLVQAGGSLRLSCAASGRTFYRNAMGWYKQAPGKERELVAAISRSGGSTYYADSVKGRFTISRDNAKNTVYLQMNSLKPEDTAVYYCNKRYPLGTEYYYWGLGTQVTVSS", "polyreactivity (PSR sort gate)": "high polyreactivity"},
      {"sequence": "QVQLVESGGGLVQAGGSLRLSCAASGRTFYRNAMGWYRQAPGKERELVAAISSDDSTNYADSVKGRFTISRDNAKNTVYLQMNSQKPEDTAVYYCNADYYYGYEYDYWGQGTQVTVSS", "polyreactivity (PSR sort gate)": "low polyreactivity"},
      {"sequence": "QVQLVESGGGLVQAGGSLRLSCAASGRTFYRNAMGWYRQAPGKERELVAAISSRGGSTYYADSVKGRFTISRDNAKNSVYLQMNSLKPEDTAVYYCAATYGYGGDYDYWGQGTQVTVSS", "polyreactivity (PSR sort gate)": "high polyreactivity"},
      {"sequence": "QVQLVESGGGLVQAGGSLRLSCAASGRTFYRNAMGWYRQAPGKERELVASIRRNGGSTYYADSVKGRFTISRDNAKNTVYLQMNSLKPEDTAVYYCAARSTRRRIYGYWGQGSQVTVSS", "polyreactivity (PSR sort gate)": "high polyreactivity"},
      {"sequence": "QVQLVESGGGLVQAGGSLRLSCAASGRTFYRNAMGWYRQAPGKERELVATITRGGSTNYADSVKGRFTISRDNAKNTVYLQMNSLKPEDTAVYYCAAAQPGTNAYRVGSWGQGTQVTVSS", "polyreactivity (PSR sort gate)": "high polyreactivity"},
      {"sequence": "QVQLVESGGGLVQAGGSLRLSCAASGRTFYRNAMGWYRQATGKERELVAAISRGDSTYYADSVKGRFTISRDNAKKTVYLQMNSLKPEDTAVYYCAKRARRIGDVNMGSWGQGTQVTVSS", "polyreactivity (PSR sort gate)": "low polyreactivity"},
      {"sequence": "QVQLVESGGGLVQAGGSLRLSCAASGRTFYRNTMGWYRQAPGKERELVAAITRSGGSTYYADSVKGRVTISRDNAKNTVYLQMNSLKPEDTAVYYCAASRTYYAPYGYWGQGTQVTVSS", "polyreactivity (PSR sort gate)": "high polyreactivity"},
      {"sequence": "QVQLVESGGGLVQAGGSLRLSCAASGRTFYRSALVWYRQAPGKERELVAAISYNGGSTFYADSVKGRFTISRDNAKYTVYLQMNSLKPEDTAVYYCAAGPRGTGKYYWGQGTQVTVSS", "polyreactivity (PSR sort gate)": "high polyreactivity"},
      {"sequence": "QVQLVESGGGLVQAGGSLRLSCAASGRTFYRYAMGSYRQAPGKEREFVAVISTDGSSTYYADSVKGRFTISRDNAKNTVYLQMNSLKPEDTAVYYCNKYVYGHKYGYRYSGVQDYYYWGQGTQVTVSS", "polyreactivity (PSR sort gate)": "high polyreactivity"},
      {"sequence": "QVQLVESGGGLVQAGGSLRLSCAASGRTFYRYAMGWYRQAPGKEREFVAAISNGGSNTRYADSVKGRFTISRDNAKNTVYLQMNSLKPEDTAVYYCAADYKRNQEVDYWGQGTQVTVSS", "polyreactivity (PSR sort gate)": "high polyreactivity"},
      {"sequence": "QVQLVESGGGLVQAGGSLRLSCAASGRTFYRYAMGWYRQAPGKERELVAAISSGGSTYYADSVKGRFTISRDNAKNTVYLQMNSLKPEDTAVYYCNADYGRRNHMDYWGQGTQVTVSS", "polyreactivity (PSR sort gate)": "low polyreactivity"},
      {"sequence": "QVQLVESGGGLVQAGGSLRLSCAASGRTFYRYAMGWYRQAPGKERELVAAISYSGGSTYYADSVKGRFTISRDNAKNTVYLQMNSLKPEDTAVYYCNARPVKASYVGYNYWGQGTQVTVSS", "polyreactivity (PSR sort gate)": "high polyreactivity"},
      {"sequence": "QVQLVESGGGLVQAGGSLRLSCAASGRTFYRYAMGWYRQAPGKERELVAAITTSGGSTYYADSVKGRFTISRDNAKNTVYLQMNSLKPEDTSVYYCSATYYGYHIRDDYWGQGTQVTVSS", "polyreactivity (PSR sort gate)": "low polyreactivity"},
      {"sequence": "QVQLVESGGGLVQAGGSLRLSCAASGRTFYRYAMGWYRQAPGKERELVASISSGGSTDYADSVKGRFTISRDNAKNTVYLQMNSLKPEDTAVYYCNAEIVGFWTSYDYWGQGTQVTVSS", "polyreactivity (PSR sort gate)": "low polyreactivity"},
      {"sequence": "QVQLVESGGGLVQAGGSLRLSCAASGRTFYRYAMGWYRQAPGKERELVASITRRGGNTYYADSVKGLFTISRDNAKNTVYLQMNSLKPEDTAVYYCAAQSLHPGNWGQGTQVTVSS", "polyreactivity (PSR sort gate)": "high polyreactivity"}
    ]}
  ]
}
